Experimental data published in article PMC3064766 (Nucleic Acids Research, 2010).

Columns and labels:
myc-tagged Cbp80p = target: T1, myc-tagged Cbp80p (S. cerevisiae, UniProt P34160 1-861); assay: pull-down
T1 sequence (looked up): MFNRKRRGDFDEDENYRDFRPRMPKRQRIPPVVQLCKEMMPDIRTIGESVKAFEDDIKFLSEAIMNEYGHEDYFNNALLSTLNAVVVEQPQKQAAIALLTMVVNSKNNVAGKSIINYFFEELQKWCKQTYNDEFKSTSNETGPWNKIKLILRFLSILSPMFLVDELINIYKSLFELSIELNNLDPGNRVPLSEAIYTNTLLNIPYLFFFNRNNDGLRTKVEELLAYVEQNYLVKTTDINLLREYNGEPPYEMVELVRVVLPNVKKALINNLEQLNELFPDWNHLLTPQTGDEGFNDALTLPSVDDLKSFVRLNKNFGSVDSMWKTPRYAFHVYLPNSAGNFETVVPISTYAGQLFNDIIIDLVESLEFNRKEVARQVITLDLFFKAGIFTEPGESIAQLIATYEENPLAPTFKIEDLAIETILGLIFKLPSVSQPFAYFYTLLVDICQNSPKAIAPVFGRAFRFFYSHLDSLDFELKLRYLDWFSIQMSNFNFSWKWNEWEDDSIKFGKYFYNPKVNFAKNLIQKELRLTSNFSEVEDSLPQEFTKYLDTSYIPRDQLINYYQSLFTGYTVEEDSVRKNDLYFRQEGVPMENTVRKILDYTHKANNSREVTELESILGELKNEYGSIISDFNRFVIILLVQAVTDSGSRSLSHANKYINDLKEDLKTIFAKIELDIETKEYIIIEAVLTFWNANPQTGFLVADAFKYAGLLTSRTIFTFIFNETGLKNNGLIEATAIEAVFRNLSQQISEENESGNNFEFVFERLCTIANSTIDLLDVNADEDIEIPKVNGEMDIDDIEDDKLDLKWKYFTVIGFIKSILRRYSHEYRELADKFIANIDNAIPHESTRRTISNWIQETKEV

myc-tagged Mot1p = myc-tagged Mot1p (S. cerevisiae, UniProt P32333 1-1867); assay: co-IP
Sequence of myc-tagged Mot1p (P32333 whole entry): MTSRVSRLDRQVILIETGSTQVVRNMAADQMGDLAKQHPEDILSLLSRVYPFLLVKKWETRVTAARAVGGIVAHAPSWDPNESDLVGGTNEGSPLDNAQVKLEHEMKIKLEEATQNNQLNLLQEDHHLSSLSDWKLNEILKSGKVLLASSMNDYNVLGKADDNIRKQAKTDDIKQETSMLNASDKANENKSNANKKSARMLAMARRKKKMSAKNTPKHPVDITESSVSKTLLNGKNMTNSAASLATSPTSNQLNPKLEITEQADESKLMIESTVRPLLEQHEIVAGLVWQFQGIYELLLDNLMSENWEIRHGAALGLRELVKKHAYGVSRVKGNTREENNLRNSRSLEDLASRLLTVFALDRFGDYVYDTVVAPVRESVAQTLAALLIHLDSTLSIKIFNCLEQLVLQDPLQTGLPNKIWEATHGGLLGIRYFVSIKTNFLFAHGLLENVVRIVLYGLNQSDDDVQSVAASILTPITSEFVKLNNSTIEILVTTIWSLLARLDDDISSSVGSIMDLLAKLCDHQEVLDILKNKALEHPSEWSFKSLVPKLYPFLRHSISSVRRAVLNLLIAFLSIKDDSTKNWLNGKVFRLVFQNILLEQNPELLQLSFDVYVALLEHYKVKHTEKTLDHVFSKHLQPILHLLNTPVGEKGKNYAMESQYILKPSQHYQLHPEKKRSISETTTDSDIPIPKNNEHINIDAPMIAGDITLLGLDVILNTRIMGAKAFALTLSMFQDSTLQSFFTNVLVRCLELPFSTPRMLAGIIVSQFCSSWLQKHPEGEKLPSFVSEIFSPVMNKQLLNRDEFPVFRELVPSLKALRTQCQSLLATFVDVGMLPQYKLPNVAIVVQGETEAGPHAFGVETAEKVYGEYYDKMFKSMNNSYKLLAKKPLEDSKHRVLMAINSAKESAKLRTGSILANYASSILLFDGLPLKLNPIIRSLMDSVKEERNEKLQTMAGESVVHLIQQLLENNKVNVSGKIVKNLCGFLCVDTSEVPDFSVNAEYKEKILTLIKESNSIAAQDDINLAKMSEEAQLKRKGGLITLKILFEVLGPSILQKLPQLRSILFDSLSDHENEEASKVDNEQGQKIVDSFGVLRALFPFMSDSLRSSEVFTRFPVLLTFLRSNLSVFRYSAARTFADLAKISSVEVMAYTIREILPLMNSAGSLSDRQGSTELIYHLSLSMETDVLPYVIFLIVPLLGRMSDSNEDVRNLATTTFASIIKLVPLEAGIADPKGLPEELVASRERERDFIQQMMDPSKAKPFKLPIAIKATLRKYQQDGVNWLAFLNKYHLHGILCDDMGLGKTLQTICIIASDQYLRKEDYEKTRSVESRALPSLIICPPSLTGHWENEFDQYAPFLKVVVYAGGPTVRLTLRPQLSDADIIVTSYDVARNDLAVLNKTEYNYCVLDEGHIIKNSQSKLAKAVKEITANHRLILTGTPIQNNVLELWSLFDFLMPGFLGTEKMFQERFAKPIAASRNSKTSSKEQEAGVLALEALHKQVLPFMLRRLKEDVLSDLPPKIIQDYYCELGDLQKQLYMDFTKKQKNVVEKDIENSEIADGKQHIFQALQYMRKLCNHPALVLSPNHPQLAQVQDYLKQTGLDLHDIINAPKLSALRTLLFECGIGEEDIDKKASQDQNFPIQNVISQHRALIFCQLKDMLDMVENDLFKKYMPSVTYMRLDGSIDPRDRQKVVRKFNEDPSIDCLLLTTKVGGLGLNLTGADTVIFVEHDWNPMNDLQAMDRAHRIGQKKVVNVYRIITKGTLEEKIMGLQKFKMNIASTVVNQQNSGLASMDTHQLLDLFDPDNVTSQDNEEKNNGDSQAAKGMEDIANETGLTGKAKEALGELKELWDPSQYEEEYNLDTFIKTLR

B1: HA-tagged Cbp20p (natural protein, S. cerevisiae, UniProt Q08920 1-208, looked up)
chain: MSLEEFDEVKYDHSTKRLDTPSRYLLRKARRNPNGLQELRESMKSSTIYVGNLSFYTSEEQIYELFSKCGTIKRIIMGLDRFKFTPCGFCFIIYSCPDEALNALKYLSDTKLDEKTITIDLDPGFEDGRQFGRGKSGGQVSDELRFDFDASRGGFAIPFAERVGVPHSRFDNSSSQSNTNNYIPPPDAMGTFRPGFDEEREDDNYVPQ
Question: Does B1 bind (myc-tagged Cbp80p)?
Answer: Result: binds

Question: Does B1 bind (myc-tagged Mot1p)?
Answer: Result: binds
